Assay results reported in article PMC12350541, “Continuous Spectrophotometric Assay for Defluorinase and Dechlorinase Activities With α‐Halocarboxylic Acids” (Microbial Biotechnology, 2025).

Experiments:
[1] = target: T1, rabbit heart lactate dehydrogenase (Oryctolagus cuniculus, UniProt A0A5F9DPL1); test: NADH oxidation, A340; format: biochemical; conditions: 0.300 mM NADH, 0.1 M Tris pH 9.0
T1 construct: gene LDHB; commercial native enzyme from heart (MilliporeSigma), tetramer

O=C(O)C(F)Cl = test: LDH-coupled NADH oxidation, A340, 96-well plate, Michaelis-Menten fit; format: biochemical, Dechloromonas aromatica (nom. nud.); conditions: 0.1 M Tris pH 8.0, room temperature not stated for plate, 40 ug DEF2, 50 ug LDH, 400 uM NADH, racemic substrate 1-30 mM

T1 sequence (A0A5F9DPL1 1-334): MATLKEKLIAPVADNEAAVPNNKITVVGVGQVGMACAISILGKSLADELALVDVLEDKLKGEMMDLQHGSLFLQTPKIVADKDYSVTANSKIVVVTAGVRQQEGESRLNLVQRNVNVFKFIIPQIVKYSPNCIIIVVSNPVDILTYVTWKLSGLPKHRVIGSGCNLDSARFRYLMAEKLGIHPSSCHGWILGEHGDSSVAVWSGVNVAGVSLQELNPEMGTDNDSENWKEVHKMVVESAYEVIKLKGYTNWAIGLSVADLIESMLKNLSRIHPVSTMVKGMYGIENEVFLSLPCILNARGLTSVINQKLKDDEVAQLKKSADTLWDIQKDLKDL

Compound	NADH oxidation, A340 [1]	Km (O=C(O)C(F)Cl) [mM]	kcat (O=C(O)C(F)Cl) [s⁻¹]
O=CC(=O)O [glyoxylate]	activity with commercial rabbit heart lactate dehydrogenase with glyoxylate was too slow		
DEF2 (Dechloromonas aromatica RCB)		6.0	0.00533
